Data as given in US20250289894A1 (MORPHIC THERAPEUTIC, published 2025).
Read-outs that look alike come from different tables or passages of the source.

Legend:
[1] = target: Human α7β1 (human) (UniProt Q13683); experiment: cell-based or functional assay
[2] = target: Human α7β1 (human) (UniProt Q13683); experiment: cell-based or functional assay; remark: listed apart in the source
[3] = target: Human α7β1 (human), Q13683; experiment: cell-based or functional assay
[4] = target: T1, Human a7b1 Ecto (X2B) (human, UniProt P05556 21-728); experiment: SPR
T1 construct: extracellular domain

[5] = target: T2, Human a7 Genu Calf 1-2 (human, UniProt Q13683 679-1078, limits assumed); experiment: SPR
T2 construct: domain: Genu Calf 1-2
T2 sequence (looked up): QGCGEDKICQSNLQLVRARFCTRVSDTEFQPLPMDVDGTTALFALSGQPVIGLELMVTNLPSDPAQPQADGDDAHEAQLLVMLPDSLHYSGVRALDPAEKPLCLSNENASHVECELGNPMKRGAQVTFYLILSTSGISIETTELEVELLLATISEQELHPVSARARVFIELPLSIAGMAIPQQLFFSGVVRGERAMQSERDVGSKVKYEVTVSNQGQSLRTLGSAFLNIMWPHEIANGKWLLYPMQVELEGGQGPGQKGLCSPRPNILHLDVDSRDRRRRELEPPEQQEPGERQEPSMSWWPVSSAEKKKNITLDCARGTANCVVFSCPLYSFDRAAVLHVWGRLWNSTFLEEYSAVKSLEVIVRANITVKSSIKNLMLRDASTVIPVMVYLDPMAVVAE

Isotype Control (antibody) gave an EC50 (nM), ECIS, DMD-1 myoblast cells (control row) [1] of 38.1 nM, an EC50 (nM), ECIS, DMD-2 myoblast cells (control row) [1] of 8.7 nM and an EC50 (nM), ECIS, Non-DMD myoblast cells (control row) [1] of 8.1 nM. The Emax (% of RefAb1), ECIS, DMD-1 myoblast cells (control row) [1] was 59 % of RefAb1, the Emax (% of RefAb1), ECIS, DMD-2 myoblast cells (control row) [1] was 39 % of RefAb1 and the Emax (% of RefAb1), ECIS, Non-DMD myoblast cells (control row) [1] was 35 % of RefAb1.

Work on TS2/16 antibody yielded an EC50 (nM), a7b1 activation assay [1] of 2.07 nM, an EC50 (ug/mL), a7b1 activation assay [1] of 0.31 µg/mL and an Emax (% TS2/16), a7b1 activation assay [1] of 100 % TS2/16. The Emax (F.C.), a7b1 activation assay [1] was 2.34 F.C, the EC50 (nm), a7b1 activation assay [2] was 1.97 nM and the EC50 (ug/mL), a7b1 activation assay [2] was 0.3 µg/mL. It also gave an Emax (F.C.), a7b1 activation assay [2] of 2.09 F.C.

B1: Ab24/Ab25 (antibody, V domains shown)
VH: EVQLVQSGAEVKKPGSSVKVSCKASGYSFTRYWMHWVRQAPGQGLEWIGKIDPSDSETRLNQEFRDRATLTVDKSTSTAYMELSSLRSEDTAVYYCARGGYFGREWYYDVWGQGTLVTVSS
VL: DIVMTQSPLSLPVTPGEPASISCRSSQSLVHRNGNTYLHWYLQKPGQSPQLLIYEVSNRAAGVPDRFSGSGSGTDFTLKISRVEAEDVGVYFCSQSTHVPWTFGGGTKLEIK
Molecule B1 has an EC50 (nM), a7b1 activation assay [3] of 1.86 nM, an EC50 (ug/mL), a7b1 activation assay [3] of 0.28 µg/mL and an Emax (% TS2/16), a7b1 activation assay [3] of 97.9 % TS2/16. The Emax (F.C.), a7b1 activation assay (9EG7 staining, human iPSC cardiomyocytes) [3] was 2.29 F.C.

B2: Ab26/Ab27 (antibody, V domains shown)
VH: EVQLVQSGAEVKKPGSSVKVSCKASGYSFTRYWMHWVRQAPGQGLEWIGKIDPSDSETRLNQEFRDRATLTVDKSTSTAYMELSSLRSEDTAVYYCARGGYFGEEWYHDVWGQGTLVTVSS
VL: DIVMTQSPLSLPVTPGEPASISCRSSQSLVHRNGNTYLHWYLQKPGQSPQLLIYEVSNRFTGVPDRFSGSGSGTDFTLKISRVEAEDVGVYFCAQSTQLPYTFGGGTKLEIK
For B2, the EC50 (nm), a7b1 activation assay [3] was 2.88 nM, the EC50 (ug/mL), a7b1 activation assay [3] was 0.43 µg/mL and the Emax (% TS2/16), a7b1 activation assay [3] was 86.3 % TS2/16. For the same molecule, the Emax (F.C.), a7b1 activation assay [3] was 1.8 F.C.

B3: Ab30 (antibody, human IgG1, V domains shown)
VH: EVQLVQSGAEVKKPGSSVKVSCKASGYSFTRYWMHWVRQAPGQGLEWIGKIDPSDSETRLNQEFRDRATLTVDKSTSTAYMELSSLRSEDTAVYYCARGGYFGEGWYHDVWGQGTLVTVSS
VL: DIVMTQSPLSLPVTPGEPASISCRSSQSLVHRNGNTYLHWYLQKPGQSPQLLIYEVSKRASGVPDRFSGSGSGTDFTLKISRVEAEDVGVYFCAQSIQVPWTFGGGTKLEIK
Work on B3 yielded a Kd [4] of 3.99 nM and a Kd [5] of 0.57 nM.

B4: AB-P (antibody, V domains shown)
VH: QVQLVQSGAEVKKPGSSVKVSCKASGYSFTRYWMHWVRQAPGQGLEWIGKIDPSDSETRLNQEFRDRATLTVDKSTSTAYMELSSLRSEDTAVYYCARGGYFGEGWYFDVWGQGTLVTVSS
VL: DVVMTQSPLSLPVTPGEPASISCRSSQSLVHRNGNTYLHWYLQKPGQSPQLLIYKVSNRFSGVPDRFSGSGSGTDFTLKISRVEAEDVGVYFCSQSTHVPWTFGGGTKLEIK
Work on B4 yielded a Kd [4] of 63.7 nM and a Kd [5] of 16.4 nM.

B5: Ab35 (antibody, human IgG1, V domains shown)
VH: EVQLVQSGAEVKKPGSSVKVSCKASGYSFTRYWMHWVRQAPGQGLEWIGKIDPSDSETRLNQEFRDRATLTVDKSTSTAYMELSSLRSEDTAVYYCARGGYFGENWYHDVWGQGTLVTVSS
VL: DIVMTQSPLSLPVTPGEPASISCRSSQSLVHRNGNTYLHWYLQKPGQSPQLLIYEVSNRYSGVPDRFSGSGSGTDFTLKISRVEAEDVGVYFCAQSIQVPWTFGGGTKLEIK
B5 showed a Kd [4] of 4.47 nM and a Kd [5] of 0.54 nM.

B6: Ab24 (antibody, human IgG1, kappa, L234A L235A)
heavy: EVQLVQSGAEVKKPGSSVKVSCKASGYSFTRYWMHWVRQAPGQGLEWIGKIDPSDSETRLNQEFRDRATLTVDKSTSTAYMELSSLRSEDTAVYYCARGGYFGREWYYDVWGQGTLVTVSSASTKGPSVFPLAPSSKSTSGGTAALGCLVKDYFPEPVTVSWNSGALTSGVHTFPAVLQSSGLYSLSSVVTVPSSSLGTQTYICNVNHKPSNTKVDKKVEPKSCDKTHTCPPCPAPEAAGGPSVFLFPPKPKDTLMISRTPEVTCVVVDVSHEDPEVKFNWYVDGVEVHNAKTKPREEQYNSTYRVVSVLTVLHQDWLNGKEYKCKVSNKALAAPIEKTISKAKGQPREPQVYTLPPSRDELTKNQVSLTCLVKGFYPSDIAVEWESNGQPENNYKTTPPVLDSDGSFFLYSKLTVDKSRWQQGNVFSCSVLHEALHSHYTQKSLSLSPG
light: DIVMTQSPLSLPVTPGEPASISCRSSQSLVHRNGNTYLHWYLQKPGQSPQLLIYEVSNRAAGVPDRFSGSGSGTDFTLKISRVEAEDVGVYFCSQSTHVPWTFGGGTKLEIKRTVAAPSVFIFPPSDEQLKSGTASVVCLLNNFYPREAKVQWKVDNALQSGNSQESVTEQDSKDSTYSLSSTLTLSKADYEKHKVYACEVTHQGLSSPVTKSFNRGEC
Work on B6 yielded a Kd [4] of 2.4 nM and a Kd [5] of 0.1 nM.

B7: Ab32 (antibody, human IgG1, V domains shown)
VH: EVQLVQSGAEVKKPGSSVKVSCKASGYSFTRYWMHWVRQAPGQGLEWIGKIDPSDSETRLNQEFRDRATLTVDKSTSTAYMELSSLRSEDTAVYYCARGGYFGEQWYHDVWGQGTLVTVSS
VL: DIVMTQSPLSLPVTPGEPASISCRSSQSLVHRNGNTYLHWYLQKPGQSPQLLIYEVSNRASGVPDRFSGSGSGTDFTLKISRVEAEDVGVYFCSQSTHVPWTFGGGTKLEIK
For B7, the Kd [5] was 1.53 nM.

B8: Ab31 (antibody, human IgG1, V domains shown)
VH: EVQLVQSGAEVKKPGSSVKVSCKASGYSFTRYWMHWVRQAPGQGLEWIGKIDPSDSETRLNQEFRDRATLTVDKSTSTAYMELSSLRSEDTAVYYCARGGYFGRQWYFDVWGQGTLVTVSS
VL: DIVMTQSPLSLPVTPGEPASISCRSSQSLVHRNGNTYLHWYLQKPGQSPQLLIYEVSNRASGVPDRFSGSGSGTDFTLKISRVEAEDVGVYFCSQSTHVPWTFGGGTKLEIK
B8 gave a Kd [5] of 2.53 nM.

B9: Ab33 (antibody, human IgG1, V domains shown)
VH: EVQLVQSGAEVKKPGSSVKVSCKASGYSFTRYWMHWVRQAPGQGLEWIGKIDPSDSETRLNQEFRDRATLTVDKSTSTAYMELSSLRSEDTAVYYCARGGYFGVGWYNDVWGQGTLVTVSS
VL: DIVMTQSPLSLPVTPGEPASISCRSSQSLVHRNGNTYLHWYLQKPGQSPQLLIYEVSNRVPGVPDRFSGSGSGTDFTLKISRVEAEDVGVYFCSQSTHVPWTFGGGTKLEIK
Molecule B9 has a Kd [5] of 2.88 nM.

B10: Ab34 (antibody, human IgG1, V domains shown)
VH: EVQLVQSGAEVKKPGSSVKVSCKASGYSFTRYWMHWVRQAPGQGLEWIGKIDPSDSETRLNQEFRDRATLTVDKSTSTAYMELSSLRSEDTAVYYCARGGYFGETWYHDVWGQGTLVTVSS
VL: DIVMTQSPLSLPVTPGEPASISCRSSQSLVHRNGNTYLHWYLQKPGQSPQLLIYEVSHRASGVPDRFSGSGSGTDFTLKISRVEAEDVGVYFCSQSTHVPWTFGGGTKLEIK
In the case of B10, the Kd [5] is reported as 1.35 nM.

B11: Ab36 (antibody, human IgG1, V domains shown)
VH: EVQLVQSGAEVKKPGSSVKVSCKASGYSFTRYWMHWVRQAPGQGLEWIGKIDPSDSETRLNQEFRDRATLTVDKSTSTAYMELSSLRSEDTAVYYCARGGYFGEKWYHDVWGQGTLVTVSS
VL: DIVMTQSPLSLPVTPGEPASISCRSSQSLVHRNGNTYLHWYLQKPGQSPQLLIYEVSHRFPGVPDRFSGSGSGTDFTLKISRVEAEDVGVYFCAQSTQLPYTFGGGTKLEIK
Work on B11 yielded a Kd [5] of 1.33 nM.

B12: Ab37 (antibody, human IgG1, V domains shown)
VH: EVQLVQSGAEVKKPGSSVKVSCKASGYSFTRYWMHWVRQAPGQGLEWIGKIDPSDSETRLNQEFRDRATLTVDKSTSTAYMELSSLRSEDTAVYYCARGGYFGEKWYHDVWGQGTLVTVSS
VL: DIVMTQSPLSLPVTPGEPASISCRSSQSLVHRNGNTYLHWYLQKPGQSPQLLIYGVSNRFAGVPDRFSGSGSGTDFTLKISRVEAEDVGVYFCAQSTQLPYTFGGGTKLEIK
B12 showed a Kd [5] of 1.43 nM.

B13: Ab38 (antibody, human IgG1, V domains shown)
VH: EVQLVQSGAEVKKPGSSVKVSCKASGYSFTRYWMHWVRQAPGQGLEWIGKIDPSDSETRLNQEFRDRATLTVDKSTSTAYMELSSLRSEDTAVYYCARGGYFGEEWYNDVWGQGTLVTVSS
VL: DIVMTQSPLSLPVTPGEPASISCRSSQSLVHRNGNTYLHWYLQKPGQSPQLLIYKVSNRASGVPDRFSGSGSGTDFTLKISRVEAEDVGVYFCSQSTHVPWTFGGGTKLEIK
With B13 the Kd [5] was 4.44 nM.

B14: Ab39 (antibody, human IgG1, V domains shown)
VH: EVQLVQSGAEVKKPGSSVKVSCKASGYSFTRYWMHWVRQAPGQGLEWIGKIDPSDSETRLNQEFRDRATLTVDKSTSTAYMELSSLRSEDTAVYYCARGGYFGEEWYHDVWGQGTLVTVSS
VL: DIVMTQSPLSLPVTPGEPASISCRSSQSLVHRNGNTYLHWYLQKPGQSPQLLIYKVSNRASGVPDRFSGSGSGTDFTLKISRVEAEDVGVYFCSQSTHVPWTFGGGTKLEIK
Work on B14 yielded a Kd [5] of 1.57 nM.

B15: Ab40 (antibody, human IgG1, V domains shown)
VH: EVQLVQSGAEVKKPGSSVKVSCKASGYSFTRYWMHWVRQAPGQGLEWIGKIDPSDSETRLNQEFRDRATLTVDKSTSTAYMELSSLRSEDTAVYYCARGGYFGEEWYHDVWGQGTLVTVSS
VL: DIVMTQSPLSLPVTPGEPASISCRSSQSLVHRNGNTYLHWYLQKPGQSPQLLIYEGSKRFSGVPDRFSGSGSGTDFTLKISRVEAEDVGVYFCSQSTHVPWTFGGGTKLEIK
For B15, the Kd [5] was 0.94 nM.

B16: Ab42 (antibody, human IgG1, V domains shown)
VH: EVQLVQSGAEVKKPGSSVKVSCKASGYSFTRYWMHWVRQAPGQGLEWIGKIDPSDSETRLNQEFRDRATLTVDKSTSTAYMELSSLRSEDTAVYYCARGGYFGRQWYFDVWGQGTLVTVSS
VL: DIVMTQSPLSLPVTPGEPASISCRSSQSLVHRNGNTYLHWYLQKPGQSPQLLIYEGSKRFSGVPDRFSGSGSGTDFTLKISRVEAEDVGVYFCAQSTQLPYTFGGGTKLEIK
For B16, the Kd [5] was 5.7 nM.
